Laboratory results from patent publication US20250042994A1.
One block for each substance: values may come before it.

Experiments:
[1] = biological target: human CD19 on Raji cells (human) (UniProt P15391); assay: FACS on Raji cells
[2] = biological target: Human CD19-his protein (human) (UniProt P15391); assay: ELISA, antibody at 10 nM
[3] = biological target: Human CD19-his protein (human) (UniProt P15391); assay: ELISA, antibody at 100 nM
[4] = biological target: Human CD19-his protein (human) (UniProt P15391); assay: ELISA, antibody at 0.01 nM
[5] = biological target: Human CD19-his protein (human) (UniProt P15391); assay: ELISA, antibody at 0.10 nM
[6] = biological target: Human CD19-his protein (human) (UniProt P15391); assay: ELISA, antibody at 1.00 nM
[7] = biological target: Human CD19-his protein (human) (UniProt P15391); assay: ELISA, antibody at 0.001 nM
[8] = biological target: Human CD19-his protein (human) (UniProt P15391); assay: ELISA, antibody at 0.0001 nM
[9] = biological target: human CD19 on CHO-K1-human CD19 cells (human) (UniProt P15391); assay: FACS on CHO-K1-human CD19 cells
[10] = biological target: monkey CD19 on HEK293T-monkey CD19 cells (monkey); assay: FACS on HEK293T-monkey CD19 cells
[11] = biological target: cynomolgus monkey CD19 on peripheral blood B cells (cynomolgus monkey (Macaca fascicularis)); assay: FACS, cynomolgus PBMC, CD20+ B cells
[12] = biological target: Human CD19-his protein (human) (UniProt P15391); assay: ELISA, coated human CD19-His
[13] = biological target: human CD19 on the surface of cells (human) (UniProt P15391); assay: FACS on Raji cells
[14] = biological target: monkey CD19 on cells (monkey); assay: FACS on HEK293T-monkey CD19
[15] = biological target: human CD19 on the surface of cells (human) (UniProt P15391); assay: FACS on CHO-K1-human CD19-1C4
[16] = biological target: human CD19 on the surface of cells (human) (UniProt P15391); assay: FACS on CHO-K1-human CD19-1C9
[17] = biological target: human CD19 on the surface of cells (human) (UniProt P15391); assay: FACS on CHO-K1-human CD19-2C8
[18] = biological target: human CD19 on the surface of cells (human) (UniProt P15391); assay: FACS on CHO-K1-human CD19-2G4

Sequence of Human CD19-his protein (human) (P15391 20-291 limits assumed): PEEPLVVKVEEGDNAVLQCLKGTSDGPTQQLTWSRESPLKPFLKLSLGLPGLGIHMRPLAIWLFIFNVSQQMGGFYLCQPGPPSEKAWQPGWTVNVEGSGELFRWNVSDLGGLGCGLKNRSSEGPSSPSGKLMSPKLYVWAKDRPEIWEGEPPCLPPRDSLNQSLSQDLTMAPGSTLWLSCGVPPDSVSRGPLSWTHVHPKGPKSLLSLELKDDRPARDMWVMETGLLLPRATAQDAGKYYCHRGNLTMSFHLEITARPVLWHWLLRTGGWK
Sequence of human CD19 on the surface of cells (human) (P15391 20-556): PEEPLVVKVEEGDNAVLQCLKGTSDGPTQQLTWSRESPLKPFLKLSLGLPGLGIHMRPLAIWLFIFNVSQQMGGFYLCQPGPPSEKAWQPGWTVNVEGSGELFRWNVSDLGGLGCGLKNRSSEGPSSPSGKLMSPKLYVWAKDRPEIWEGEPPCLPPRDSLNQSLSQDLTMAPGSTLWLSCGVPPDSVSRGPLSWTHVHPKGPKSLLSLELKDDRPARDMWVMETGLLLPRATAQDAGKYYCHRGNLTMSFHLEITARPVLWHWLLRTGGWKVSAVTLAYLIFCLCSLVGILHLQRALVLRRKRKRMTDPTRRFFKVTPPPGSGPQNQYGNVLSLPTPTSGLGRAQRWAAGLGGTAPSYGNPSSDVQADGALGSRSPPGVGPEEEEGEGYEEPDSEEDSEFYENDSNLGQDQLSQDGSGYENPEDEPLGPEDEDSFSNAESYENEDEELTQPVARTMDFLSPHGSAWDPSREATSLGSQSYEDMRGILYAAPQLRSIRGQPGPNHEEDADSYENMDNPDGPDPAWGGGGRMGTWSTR
Sequence of human CD19 on Raji cells (human) (P15391 20-556): as above
Sequence of human CD19 on CHO-K1-human CD19 cells (human) (P15391 20-556): as above

Maximum mean fluorescence intensity [1]: 435
OD450 [2]: 0.05
OD450 [3]: 0.08
OD450 [4]: 0.05
OD450 [5]: 0.05
OD450 [6]: 0.05
OD450 [7]: 0.05
OD450 [8]: 0.04
Maximum mean fluorescence intensity [9]: 99
Maximum mean fluorescence intensity [10]: 90
Proportion of chimeric antibody positive cells to B cells (%) at 1 nM [11]: 1%
Proportion of chimeric antibody positive cells to B cells (%) at 10 nM [11]: 1%
Proportion of chimeric antibody positive cells to B cells (%) at 100 nM [11]: 1%
Substance: anti-hel-hIgG1 (antibody)

Maximum mean fluorescence intensity [1]: 651 MFI
OD450 at 0.0001 nM [12]: 0.09 OD450
OD450 at 0.001 nM [12]: 0.08 OD450
OD450 at 0.01 nM [12]: 0.08 OD450
OD450 at 0.10 nM [12]: 0.08 OD450
OD450 at 1.00 nM [12]: 0.08 OD450
OD450 at 100 nM [12]: 0.17 OD450
Maximum mean fluorescence intensity [9]: 82 MFI
Substance: anti-hel-mIgG1 (antibody)

mean fluorescence intensity [13]: 72
mean fluorescence intensity [14]: 62
mean fluorescence intensity [15]: 50
mean fluorescence intensity [16]: 50
mean fluorescence intensity [17]: 50
mean fluorescence intensity [18]: 50
Substance: IgG subtype control (antibody)
